Where a chain is given by its changes, count along the chain named. In names and notes the source's numbering stands.
T1: human CD43 (JL-1 antigen) on cells (human, UniProt P16150 20-400)
T1 construct: also called leukosialin; sialophorin
T1 sequence: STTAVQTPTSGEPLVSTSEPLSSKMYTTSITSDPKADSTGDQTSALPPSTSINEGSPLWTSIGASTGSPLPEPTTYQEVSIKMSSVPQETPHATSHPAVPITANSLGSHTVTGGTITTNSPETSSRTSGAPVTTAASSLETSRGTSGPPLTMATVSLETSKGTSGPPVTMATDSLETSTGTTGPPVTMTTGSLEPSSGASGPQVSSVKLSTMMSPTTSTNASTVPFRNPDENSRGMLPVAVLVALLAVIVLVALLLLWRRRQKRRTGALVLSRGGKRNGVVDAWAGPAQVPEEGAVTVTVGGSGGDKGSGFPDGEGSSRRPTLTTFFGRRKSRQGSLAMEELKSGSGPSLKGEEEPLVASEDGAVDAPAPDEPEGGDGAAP

B1: mouse anti-CD43 monoclonal antibody (ART140 JL1) (antibody, human IgG1, kappa, V domains shown)
VH: EVQLQQSGPELVKPGASVKISCKASGYSIGGYFMNWVKQSHGKSPEWIGRINPNNGDSFYNQKFKGTATLTVDRSSDTVHMEVLSLTSEDSAVYYCGREGYYGGRGYALDYWGQGTSVTVSS
VL: DIQMTQTTSSLSASLGDRVTISCRTSQDISNYLNWYQQKPDGTVKLLIYNTSRLHSGVPSRFSGSGSGTDYSLTIRNLEQKDIATYFCQQSNMFPYTFGGGTKLEIKR
notes: also called mouse anti-JL-1 antibody; mJL-1
B2: humanized anti-CD43 antibody 257-10 (antibody, IgG1, V domains shown)
VH: QVQLVQSGAEVKKPGASVKVSCKASGYTFNGYFMNWVRQAPGQGLRWMGRINPNNGDSFYNQKFQGRVTMTRDTSTSTVYMEPSSLRSEDTAVYYCAREGYYGGRGYALDYWGQGTLVTVSS
VL: DTQMTQSPSSVSASVGDRVTITCRTSQDISNYLNWYQQKPGKAPKLLIYNTSRLHSGVPSRFSGSGSGTDFTLTISSLQPEDFATYYCQQSNMFPYTFGQGTKLEIKR
modifications: glycosylated in the light chain variable region (N50-T-S52 motif; Concanavalin A blot)
B3: humanized anti-CD43 antibody 456-D10 (antibody, V domains shown)
VH: B2 VH with R46E, W47R, P83L, S84P
VL: B2 VL with K39E
notes: tested as humanized IgG
B4: modified humanized anti-CD43 antibody, light chain N50Q (antibody, V domains shown)
VH: B2 VH
VL: DTQMTQSPSSVSASVGDRVTITCRTSQDISNYLNWYQQKPGKAPKLLIYQTSRLHSGVPSRFSGSGSGTDFTLTISSLQPEDFATYYCQQSNMFPYTFGQGTKLEIK
B5: modified humanized anti-CD43 antibody, light chain N50A (antibody, V domains shown)
VH: B2 VH
VL: B4 VL with Q50A
notes: also called modified humanized antibody removing glycosylation

Assays:
[1] = molecular target: T1, human CD43 (JL-1 antigen) on cells; assay: immunofluorescence on Molt-4 cells, antibody 50 ug/ml, no human serum
[2] = molecular target: T1, human CD43 (JL-1 antigen) on cells; assay: staining of CEM7 cells, fluorescence intensity (FIG. 34)
[3] = molecular target: T1, human CD43 (JL-1 antigen) on cells; assay: binding to CD43 positive CEM7 cells (FIG. 45)

Row | Binder | binding result [2] | binding result [3] | other results
1 | B1 | – | – | binding result [1]: binds
2 | B2 | binds | – | –
3 | B3 | binds | – | –
4 | B4 | – | binds | –
5 | B5 | – | binds | –

— US20190016813A1 (APROGEN KIC, published 2019)
